Test system: peptide library, one residue held at a place counted from the S/T acceptor
Assay: relative phosphorylation of the sub-library (ratio to the mean residue at this position); higher = residue favoured
Settings: human
Summary of the method: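 Purified recombinant kinases, either human or orthologue constructs, were incubated in 384-well plates with biotinylated degenerate peptide sub-libraries. Each sub-library fixed one residue at one position around a central Ser/Thr. Peptides at 50 μM and 50 μM ATP spiked with γ-32P-ATP were used for 90 min under kinase-specific conditions, and spots on streptavidin membranes were phosphorimaged and quantified by densitometry. Relative sub-library phosphorylation is expressed as a ratio to the mean residue at that position.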

Chain of MINK1, construct: aa1-320 (Q8N4C8 1-320, looked up): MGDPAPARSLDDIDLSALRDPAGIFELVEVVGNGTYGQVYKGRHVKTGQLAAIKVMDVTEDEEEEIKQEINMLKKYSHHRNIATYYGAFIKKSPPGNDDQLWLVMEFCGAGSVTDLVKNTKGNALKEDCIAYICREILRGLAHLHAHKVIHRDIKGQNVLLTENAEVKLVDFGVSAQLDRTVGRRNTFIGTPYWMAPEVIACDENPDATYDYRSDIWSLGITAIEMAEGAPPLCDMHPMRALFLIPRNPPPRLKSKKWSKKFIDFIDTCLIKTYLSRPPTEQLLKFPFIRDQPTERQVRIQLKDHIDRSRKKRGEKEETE

MINK1, construct: aa1-320 (from UniProt Q8N4C8)
relative phosphorylation
Settings | at +1 | at +2 | at +3 | at +4 | at -1 | at -2 | at -3 | at -4 | at -5
A fixed | 0.635 | 0.904 | 0.864 | 0.99 | 0.952 | 1.11 | 1.02 | 1.08 | 1.28
D fixed | 0.177 | 0.699 | 0.464 | 0.556 | 0.854 | 0.746 | 0.867 | 1 | 0.995
E fixed | 0.187 | 0.749 | 0.405 | 0.574 | 0.536 | 0.498 | 0.818 | 0.891 | 0.801
F fixed | 1.16 | 0.577 | 0.764 | 0.533 | 0.778 | 1.55 | 0.946 | 1.07 | 0.8
G fixed | 0.708 | 1.09 | 0.959 | 1.28 | 1.69 | 1.19 | 1.19 | 1.19 | 1.2
H fixed | 0.783 | 1.25 | 1.25 | 1.22 | 1.31 | 1.13 | 1.2 | 1.08 | 1.09
I fixed | 1.91 | 0.664 | 0.726 | 0.983 | 0.385 | 0.769 | 0.784 | 0.793 | 0.894
K fixed | 0.669 | 1.93 | 2.35 | 1.94 | 1.25 | 0.713 | 1.01 | 0.947 | 0.979
L fixed | 2.89 | 0.776 | 0.869 | 0.75 | 0.926 | 0.789 | 0.829 | 0.78 | 0.73
M fixed | 2.32 | 0.86 | 0.681 | 0.897 | 1.15 | 0.952 | 0.95 | 0.917 | 0.87
N fixed | 0.677 | 0.937 | 0.721 | 1.04 | 1.49 | 1.03 | 1.26 | 1.03 | 1.09
P fixed | 0.194 | 1.09 | 0.892 | 0.943 | 0.646 | 0.675 | 0.846 | 0.959 | 1.06
Q fixed | 0.587 | 0.914 | 0.818 | 0.926 | 1.11 | 0.882 | 0.9 | 0.996 | 0.958
R fixed | 0.65 | 2.39 | 2.76 | 1.74 | 1.4 | 0.821 | 1.15 | 0.971 | 1.19
V fixed | 1.06 | 0.763 | 0.773 | 0.743 | 0.536 | 0.893 | 0.858 | 0.966 | 0.98
W fixed | 1.45 | 0.591 | 0.928 | 1.07 | 0.822 | 1.38 | 1.28 | 1.18 | 0.978
Y fixed | 0.94 | 0.815 | 0.778 | 0.818 | 1.17 | 1.87 | 1.09 | 1.15 | 1.1
pThr fixed | 0.703 | 0.621 | 0.744 | 0.601 | 0.629 | 0.963 | 1.18 | 1.07 | 1.14
pTyr fixed | 0.282 | 0.462 | 0.623 | 0.51 | 0.797 | 0.745 | 1.04 | 0.679 | 1.06
